The source of these data is patent US20210140973A1 (NITTO BOSEKI, published 2021).

In assay [1] the target is T1, GST-tagged peptide H1 (full-length human IgG4 heavy chain constant region) (human, UniProt P01861 1-325 = IgG part).
T1 construct: Expressed in E. coli BL21; lysate, reduced and heat-denatured, on SDS-PAGE / Western blot; not shown: GST tag (glutathione S-transferase) linked to the N terminal, expressed from vector pGEX-6P-1
Briefly: Western blot: E. coli lysate with the GST-tagged peptide, SDS-PAGE, PVDF membrane, POD-labelled antibody diluted 1000-fold, ECL.

For assay [2], the target named is T2, GST-tagged peptide H2 (positions 1 to 274 of the human IgG4 heavy chain constant region) (human, UniProt P01861 1-274 = IgG part).
T2 construct: E. coli lysate on Western blot; not shown: GST tag (glutathione S-transferase) linked to the N terminal, expressed from vector pGEX-6P-1
T2 sequence (P01861 1-274): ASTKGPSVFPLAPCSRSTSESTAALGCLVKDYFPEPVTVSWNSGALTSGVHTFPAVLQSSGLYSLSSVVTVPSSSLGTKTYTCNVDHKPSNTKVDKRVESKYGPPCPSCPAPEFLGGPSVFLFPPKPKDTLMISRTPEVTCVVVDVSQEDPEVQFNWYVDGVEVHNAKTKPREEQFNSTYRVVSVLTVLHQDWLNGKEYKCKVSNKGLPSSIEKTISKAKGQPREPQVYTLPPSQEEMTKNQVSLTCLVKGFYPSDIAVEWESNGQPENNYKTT
The description is as above.

For assay [3], the target named is T3, GST-tagged peptide H6 (positions 1 to 55 of the human IgG4 heavy chain constant region) (human, UniProt P01859 1-55 = IgG part).
T3 construct: E. coli lysate on Western blot; not shown: GST tag (glutathione S-transferase) linked to the N terminal, expressed from vector pGEX-6P-1
T3 sequence (P01859 1-55): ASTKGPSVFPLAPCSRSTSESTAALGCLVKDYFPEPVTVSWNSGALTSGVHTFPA
The assay is described as above.

Assay [4] addresses T4, GST-tagged peptide H11 (positions 275 to 327 of the human IgG4 heavy chain constant region) (human, UniProt P01861 275-325 = IgG part).
T4 construct: E. coli lysate on Western blot; not shown: GST tag (glutathione S-transferase) linked to the N terminal, expressed from vector pGEX-6P-1
The assay is described as above.

The target of assay [5] is T5, GST-tagged peptide H33 (H10 with glutamine for glutamic acid at position 299) (human, UniProt P01861 221-325 = IgG part).
T5 construct: not shown: GST tag (glutathione S-transferase) linked to the N terminal, expressed from vector pGEX-6P-1
T5 chain: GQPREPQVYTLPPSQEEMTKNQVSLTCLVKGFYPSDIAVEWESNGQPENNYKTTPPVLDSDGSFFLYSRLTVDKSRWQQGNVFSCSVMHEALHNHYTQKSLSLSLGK
Described as above.

For assay [6], the target named is T6, GST-tagged peptide H35 (H10 with Q235R, R289K, E299Q and L325P) (human, UniProt P0DOX5 343-449 = IgG part).
T6 construct: not shown: N-terminal GST tag (from vector pGEX-6P-1) and any vector linker
T6 chain: T5 chain with Q15R, R69K, L105P
The description is as above.

The target in assay [7] is T7, GST-tagged peptide H37 (H10 with R289K and L325P) (human, UniProt P01861 221-324 = IgG part).
T7 construct: not shown: N-terminal GST tag (from vector pGEX-6P-1) and any vector linker
T7 chain: T5 chain with R69K, Q79E, L105P
Described as above.

The target of assay [8] is T8, Myeloma human IgG4 (EMD Millipore) (human).
T8 construct: Bought myeloma protein
T8 sequence (constant, as listed by the source limits assumed): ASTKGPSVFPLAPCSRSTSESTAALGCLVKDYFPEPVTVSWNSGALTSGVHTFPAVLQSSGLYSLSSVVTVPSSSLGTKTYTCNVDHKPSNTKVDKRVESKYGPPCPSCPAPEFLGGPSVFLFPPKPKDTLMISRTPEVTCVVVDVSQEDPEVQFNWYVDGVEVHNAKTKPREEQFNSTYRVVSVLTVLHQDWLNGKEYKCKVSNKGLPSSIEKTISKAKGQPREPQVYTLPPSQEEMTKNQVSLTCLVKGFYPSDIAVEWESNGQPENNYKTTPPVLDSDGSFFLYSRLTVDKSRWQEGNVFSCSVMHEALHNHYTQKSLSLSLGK
Briefly: latex agglutination inhibition; 3000 mg/dL myeloma protein as free sample against IgG4-sensitized latex, read on the IgG4 calibration curve. On the procedure: (§1) In a case where the MaI4-08-produced antibody or the MaI4-09-produced antibody was used as an anti-human IgG4 mouse monoclonal antibody in the first reagent, specificity to human IgG4 was evaluated. As a sample, Myeloma human IgG4 solution (EMD Millipore) adjusted to 3000 mg/dL was used. In addition, as control samples, Myeloma human IgG1 solution (EMD Millipore), Myeloma human IgG2 solution (EMD Millipore), and Myeloma human IgG3 solution (Sigma-Aldrich Co. LLC) prepared similarly to the above were used. A saline solution was used as a blank sample. For the measurement of human IgG4 concentrations, 120 μL of the first reagent and 120 μL of the second reagent were reacted with 3 μL of a sample using Hitachi type 7180 automatic analyzer, and change amount of absorbance in the range of photometric points of 18 to 28 (corresponding to 1 minute to 4 minutes after addition of R2) was measured at a main wavelength of 570 nm and a complementary wavelength of 800 nm by a two-point end method (n=2). A calibration curve was created from the results of Table 8 and the human IgG4 concentration in a sample was calculated therefrom.

Assay [9] deals with T9, Myeloma human IgG1 (EMD Millipore) (human).
T9 construct: Bought myeloma protein
T9 sequence (constant, as listed by the source limits assumed): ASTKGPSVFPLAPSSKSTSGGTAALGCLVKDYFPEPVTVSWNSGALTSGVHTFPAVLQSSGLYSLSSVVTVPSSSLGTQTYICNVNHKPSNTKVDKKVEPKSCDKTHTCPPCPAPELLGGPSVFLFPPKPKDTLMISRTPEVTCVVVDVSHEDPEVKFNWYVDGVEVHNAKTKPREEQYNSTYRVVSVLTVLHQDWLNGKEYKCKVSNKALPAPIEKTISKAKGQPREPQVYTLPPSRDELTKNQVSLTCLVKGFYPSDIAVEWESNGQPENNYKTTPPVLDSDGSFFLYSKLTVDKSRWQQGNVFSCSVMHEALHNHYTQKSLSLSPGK
The assay is described as above. How it is done:
as §1

Numbering of substitutions follows the chain as printed.

B1: MaI4-08-produced antibody (antibody, IgG1, V domains shown)
VH: EVQLQQSGPELVKPGTSVKMSCKASGYIFTSYILHWVKQKPGQGLEWIAYINPYNDGTKYKEKFKGKGTLTSDKSSSTAYMELSSLTSEDSAVYYCARSGGGYGNYAWFAYWGPGTLVTVST
VL: DIQMTQSPSSLSASLGERVSLTCRASQDIGSSLNWLQQEPDGTIKRLIYATSSLDSGVPKRFSGSRSGSDYSLTISSLESEDFVDYYCLQYASYPPTFGAGTKLELK
notes: Purified on protein G from hybridoma culture supernatant; POD-labelled for the Western blots
Consider B1, for which the binding result in assay [1] is on record as “binds”; in assay [2], “no binding”; in assay [3], “no binding”; in assay [4] it was “no binding”; in assay [5], “no binding”; in assay [6], “no binding”. Further, in assay [7], the binding result is listed as “binds”. Moreover, the results for the “Measured value (apparent human IgG4 concentration)” value in assay [8] and in assay [9] were 1090 mg/dL and 10.1 mg/dL, respectively.
